These results are taken from patent publication US20240409645A1 (DUALYX, published 2024).

Residue numbers refer to the chain shown, from its start.

The chains are these.
T1: human IL-2Rα (human, UniProt P01589 22-240, limits assumed)
T1 construct: recombinant protein; also called hu IL-2R; human IL-2Ra
T1 sequence: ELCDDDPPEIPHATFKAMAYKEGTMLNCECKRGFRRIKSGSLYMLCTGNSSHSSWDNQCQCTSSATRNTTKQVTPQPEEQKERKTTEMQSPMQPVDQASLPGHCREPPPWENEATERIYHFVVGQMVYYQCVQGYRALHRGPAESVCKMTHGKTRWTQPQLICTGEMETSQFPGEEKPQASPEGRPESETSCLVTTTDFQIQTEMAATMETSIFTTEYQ

T2: mouse IL-2Rα (mouse, UniProt P01590 22-236, limits assumed)
T2 construct: recombinant protein; also called mo IL-2R; mouse IL-2Ra
T2 sequence (looked up): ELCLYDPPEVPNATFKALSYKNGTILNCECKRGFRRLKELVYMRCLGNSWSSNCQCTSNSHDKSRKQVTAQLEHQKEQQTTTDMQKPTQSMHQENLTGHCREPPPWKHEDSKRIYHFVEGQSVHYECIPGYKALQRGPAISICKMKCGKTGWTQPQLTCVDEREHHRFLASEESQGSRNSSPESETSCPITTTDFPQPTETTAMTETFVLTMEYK

T3: cynomolgus monkey IL-2Rβ/CD122 subunit (cynomolgus monkey, UniProt Q38J85 27-239, limits assumed)
T3 construct: also called Cyno IL-2R subunit
T3 sequence (looked up): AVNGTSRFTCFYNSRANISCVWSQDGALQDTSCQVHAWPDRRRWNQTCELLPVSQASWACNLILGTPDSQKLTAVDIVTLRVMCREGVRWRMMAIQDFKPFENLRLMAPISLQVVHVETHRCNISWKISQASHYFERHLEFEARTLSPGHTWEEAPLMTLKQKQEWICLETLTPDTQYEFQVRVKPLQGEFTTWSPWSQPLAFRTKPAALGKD

T4: human interleukin-2 receptor β-chain (IL-2Rβ; CD122), recombinant protein (human, UniProt P14784 27-240)
T4 construct: also called human IL-2R subunit CD122
T4 sequence: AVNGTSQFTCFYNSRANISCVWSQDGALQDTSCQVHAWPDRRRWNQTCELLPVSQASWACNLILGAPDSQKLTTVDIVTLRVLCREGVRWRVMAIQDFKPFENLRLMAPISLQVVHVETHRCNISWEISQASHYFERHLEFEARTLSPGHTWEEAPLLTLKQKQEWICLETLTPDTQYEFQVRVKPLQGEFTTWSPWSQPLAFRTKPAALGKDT

B1: FJ1427_P035MP05A05 (VHH)
VHH: QLQLVESGGGLVQAGGSLRLSCAASGLTFDGYAIGWFRQASGKEREGVSYINGRDGSTFYADSVKGRFIISSDNAKNTVDLQMNSLKPDDAAVYYCAVDRLGSRGAYVSTWWRPPDMDLWGKGTLVTVSP
notes: periplasmic extract; also called clone nr; 417
B2: FJ1427_P035MP05D04 (VHH)
VHH: B1 VHH with K87N, T110S, P114S, P130S
notes: periplasmic extract; also called clone nr
B3: FJ1427_P035MP05C06 (VHH)
VHH: B1 VHH with L2V, A61T, T110S, P114S, P130S
notes: as for B2
B4: FJ1427_P035MP05H08 (VHH)
VHH: B1 VHH with P114S, P130S
notes: as for B2
B5: FJ1427_P035MP05A10 (VHH)
VHH: QLQLVESGGGLVQAGGSLRLSCTASGLTFDGYAIGWFRQAPGKEREGVSYITGSDGSTYYIDSVKGRFTISSDIAKSTVYLQMNSLKPEDTAVYYCAVDRLGSRGLYASSWWRSGDMDLWGKGTLVTVSS
notes: as for B2
B6: FJ1427_P035MP05H09 (VHH)
VHH: B5 VHH with G10D, A14P, D55N, S85T
notes: as for B2
B7: FJ1427_P035MP05E10 (VHH)
VHH: B5 VHH with Q1E, L2V
notes: as for B2
B8: FJ1427_P035MP05G08 (VHH)
VHH: B5 VHH with D30E, G56A, I74F, S85N, L106G
notes: as for B2
B9: FJ1427_P035MP05D10 (VHH)
VHH: B5 VHH with L2V, I61R, I74N, S85T
notes: periplasmic extract; also called clone nr; 460
B10: FJ1427_P035MP05C11 (VHH)
VHH: B5 VHH with L2V, D30E, G56A, I74F, S85N, L106G
notes: as for B2
B11: 11-MP05H04 (VHH)
VHH: B5 VHH with T23A, D30E, S57T, D62N, I74N, S85T, R104Q, L106R, S110A, L125Q
notes: periplasmic extract; also called FJ1427_P035MP05H04
B12: FJ1427_P035MP05B05 (VHH)
VHH: EVQLVESGGGLVQAGGSLRLSCAASGFTFDGYAVGWFRQAPGKEPEGVSYITGSDGVTYYIDSVKGRFTISSDNAKRTVYLQMNTLKPEDTAVYYCAVDRLGSQGRYASSWWRAGDMDFWGKGTLVTVSS
notes: as for B2
B13: FJ1427_P035MP01C11 (VHH)
VHH: QVQLVESGGGLVQAGGSLRLSCAASGGTFRTRNMGWFRRAPGKEREFVAAVSWNVDNKLYAGSVKGRFTISRDNGRNMVYLQMNSLKPEDTAVYYCAADNIPLSSDMRPTATEYDYWGQGTQVTVSS
notes: periplasmic extract; also called clone nr; 83
B14: 9-MP05G01 (VHH)
VHH: EVQLVESGGGLVQAGGSLRLSCAASGGSIYTYNMGWFRQAPGKEREFVAGTLWSGGDSVYADFAKGRFTLSRENAKNTLYLQMNSLKPEDTATYYCAIDPLSLTSDWRVDELSSWGKGTLVTVSS
notes: periplasmic extract; also called FJ1427_P035MP05G01
B15: FJ1427_P035MP05C09 (VHH)
VHH: QLQLVESGGGLVQAGGSLRLSCAASGFTFDGYAIGWFRQAPGKEREGVSYITGSDGSTYYADSVKGRFTISSNNAKNTVYLHMNSLKPDDAAVYYCAIDRLGSRGAYVPIWWRSSDMDLWGKGTLVTVSS
notes: as for B2
B16: FJ1427_P035MP05B08 (VHH)
VHH: QLQLVESGGGLVQAGGSLRLSCVAHGLTFDGYAIGWFRQAPGKELEGVSYITGSDGSRYYADSVKGRFTISSDVAKNTVYLHMNNLKPDDAARYYCAVDRLGSRGAYVSAWWRSSDMDLWGKGTLVTVSS
notes: as for B2
B17: FJ1427_P035MP05C10 (VHH)
VHH: B15 VHH with A14T, A23S, A24T, R45P, N73D, R104G
notes: as for B2
B18: 12-MP05B12 (VHH)
VHH: B15 VHH with L2V
notes: periplasmic extract; also called FJ1427_P035MP05B12
B19: 20-MP03F10 VHH-hFc, monospecific bivalent (Fc fusion)
chain: EVQLVESGGGLVQAGGSLRLSCAASGRDFSSYAMGWFRQAPGKEREFVVAITWTKRSTDFPDSVKGRFTISRDNAKNTVYLDMNSLKPEDTAVYYCASARGLPVTPLGDIIYWGEGTLVTVSS
notes: IgG1 Fc LALA-PG; not shown: human IgG1 CH2 and CH3 domains (Fc)

One assay concerns the target T1, human IL-2Rα. The assay can be described thus: ELISA, P.E. on coated antigen. An outline of the steps:
(§1)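 Plates were coated overnight at 4° C with human or mouse IL-2R chain protein, and free sites blocked for 1 hour in 4% Marvel in PBS. Periplasmic extracts diluted 1:5 in 1% Marvel/PBS then bound for 1 hour, with specificity assessed from 450 nm absorbance relative to negative controls.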
For the molecule B1, the “OD (PE binding ELISA)” value came to 1.86 OD450 nm.
Turning to B2, the “OD (PE binding ELISA)” value is 1.91 OD450 nm.
As to B3, the “OD (PE binding ELISA)” value amounted to 2.43 OD450 nm.
On the same count and under the same terms, with B4 the figure was 2.17 OD450 nm; with B5, 2.18 OD450 nm.
For the molecule B6, the “OD (PE binding ELISA)” value was determined as 2.26 OD450 nm.
Still for that read-out and setting: the result for B7 reads 2.27 OD450 nm; that for B8, 2.39 OD450 nm.
For the molecule B9, the “OD (PE binding ELISA)” value was 2.09 OD450 nm.
The same measure, in the same setting: the result for B10 reads 2.14 OD450 nm.
With B11, the “OD (PE binding ELISA)” value came out at 2.22 OD450 nm.
As to B12, the “OD (PE binding ELISA)” value amounted to 2.15 OD450 nm.
Same read-out and setting: the result for B13 reads 2.78 OD450 nm; that for B14, 2.35 OD450 nm; that for B15, 0.366 OD450 nm.
Same read-out and setting: the result for B16 reads 1.88 OD450 nm.
For B17, the “OD (PE binding ELISA)” value is 0.63 OD450 nm.
Take B18: the “OD (PE binding ELISA)” value was found to be 2.14 OD450 nm.

The next assay deals with T2, mouse IL-2Rα. The assay can be described thus: ELISA, P.E. on coated antigen. An outline of the steps: as §1
B1: the “OD (PE binding ELISA)” value worked out at 0.052 OD450 nm.
The same measure, in the same setting: the result for B2 reads 0.045 OD450 nm; that for B3, 0.071 OD450 nm.
In the case of B4, the “OD (PE binding ELISA)” value stood at 0.05 OD450 nm.
On the same count and under the same terms, with B5 the figure was 0.24 OD450 nm; with B6, 0.154 OD450 nm.
Turning to B7, the “OD (PE binding ELISA)” value amounted to 0.718 OD450 nm.
As to B8, the “OD (PE binding ELISA)” value was determined as 0.38 OD450 nm.
Still for that read-out and setting: the result for B9 reads 0.107 OD450 nm; that for B10, 0.632 OD450 nm.
For B11, the “OD (PE binding ELISA)” value amounted to 0.163 OD450 nm.
The same measure, in the same setting: the result for B12 reads 0.045 OD450 nm.
For the molecule B13, the “OD (PE binding ELISA)” value was determined as 0.045 OD450 nm.
On the same count and under the same terms, with B14 the figure was 0.047 OD450 nm.
Same read-out and setting: the result for B15 reads 0.059 OD450 nm; that for B16, 0.057 OD450 nm; that for B17, 0.071 OD450 nm.
Same read-out and setting: the result for B18 reads 0.936 OD450 nm.

In a further assay the target is T3, cynomolgus monkey IL-2Rβ/CD122 subunit. The assay can be described thus: ELISA, bivalent VHH-hFc. How it is done: (§2) Monospecific monovalent and bivalent IL-2Rα-, IL-2Rβ- and IL-2Rγ-specific antibodies that were selected on human IL-2R subunits, were evaluated for their cross-reactivity in an ELISA. Human and cynomolgus monkey receptor subunits (Acrobiosystems, KactusBiosystems) were coated at 1 μg/mL in PBS (pH 7.4) in a Maxisorp plate (Nunc) and incubated overnight at 4° C. The plates were further washed with PBS-Tween pH 7.4 and incubated with 1% cascin/PBS-Tween blocking solution for 1 hour shaking at 400 rpm. Subsequently, the plate was washed three times with PBS-Tween pH 7.4, after which the test antibodies diluted in 0.1% casein/PBS-Tween were added to the plate and incubated for 1 hour. The plate was again washed three times, after which goat anti-human IgG Fc (HRP) detection antibody (abcam) was added to the plate and incubated for 30 min. The colouring reaction was performed with TMB (Sigma-Aldrich) and stopped with 0.5N H₂SO₄.
(§3) Absorbance was measured at 450 nm with the reference wavelength of 620 nm using spectrophotometer. Final analysis and graphic output were performed with GraphPad Prism version 8 (GraphPad Software). The dose-response binding curves were fit to a nonlinear regression model (log (agonist) vs. response with a variable slope (four parameters)).
For the molecule B19, the binding result is given as “no binding”.

The target of a further assay is T4, human interleukin-2 receptor β-chain …. The assay can be described thus: ELISA, bivalent VHH-hFc. How it is done: as §2, §3
For B19, the 50% effective concentration (EC50) came to 0.218 nM.

In a further assay the target is T1, human IL-2Rα. The assay can be described thus: SPR, P.E. on immobilised antigen. An outline of the steps:
(§4)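 Immobilised receptor density: ~2500 RU (CM5, amine coupling). Analyte: VHH-containing P.E., 30 uL/min. Read-out: off-rate over 120s.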
Molecule B1 came in with a dissociation rate constant (koff) of 0.00341 s⁻¹.
B2: the koff worked out at 0.00224 s⁻¹.
Regarding B3, the koff was 0.000659 s⁻¹.
For B4, the off-rate (koff) was determined as 0.00278 s⁻¹.
Still for that read-out and setting: with B5 the figure was 0.0012 s⁻¹.
B6 came in with a koff of 0.00105 s⁻¹.
Consider B7, for which the koff is 0.00169 s⁻¹.
Same read-out and setting: the result for B8 reads 0.000908 s⁻¹; that for B9, 0.00108 s⁻¹; that for B10, 0.00044 s⁻¹.
For the molecule B11, the off-rate constant (koff) is 0.0012 s⁻¹.
Turning to B12, the koff came to 0.00103 s⁻¹.
On the same count and under the same terms, the result for B13 reads 0.000556 s⁻¹; that for B14, 0.000169 s⁻¹.
Take B15: the off-rate constant (koff) stood at 0.00609 s⁻¹.
In turn, B16 returned a koff of 0.00253 s⁻¹.
B17 displayed a koff of 0.00406 s⁻¹.
On the same count and under the same terms, with B18 the figure was 0.000222 s⁻¹.

A further assay addresses T2, mouse IL-2Rα. As to the kind of experiment: SPR, P.E. on immobilised antigen. The essentials: as §4
In the case of B1, the koff was 0.0172 s⁻¹.
The molecule B2 gave a koff of 0.0122 s⁻¹.
The same measure, in the same setting: with B3 the figure was 0.00311 s⁻¹; with B4, 0.0129 s⁻¹; with B5, 0.00321 s⁻¹.
In the case of B6, the koff was found to be 0.00244 s⁻¹.
As to B7, the off-rate constant (koff) is 0.00177 s⁻¹.
On the same count and under the same terms, the result for B8 reads 0.00258 s⁻¹; that for B9, 0.00284 s⁻¹.
In the case of B10, the off-rate (koff) was found to be 0.000844 s⁻¹.
The same measure, in the same setting: the result for B11 reads 0.00163 s⁻¹.
For B12, the off-rate (koff) is 0.0114 s⁻¹.
Still for that read-out and setting: with B13 the figure was 0.351 s⁻¹; with B14, 0.0442 s⁻¹; with B15, 0.00435 s⁻¹.
In turn, B16 displayed a koff of 0.00608 s⁻¹.
The same measure, in the same setting: the result for B17 reads 0.00403 s⁻¹.
The same measure, in the same setting: with B18 the figure was 0.000547 s⁻¹.
